Measured values from patent US20250064983A1, “COMPOSITIONS AND METHODS FOR TREATING A CARDIAC DISEASE” (The Children's Medical Center Corporation, priority 2022, published 2025).
“Also recorded” adds a separate entry of the source. Where no end group is shown, it is not given here.

T1: AIPx5 multimer
T1 chain: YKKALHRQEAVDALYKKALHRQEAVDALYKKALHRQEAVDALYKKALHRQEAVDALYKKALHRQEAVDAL

T2: autocamtide-2-related inhibitory peptide (AIP)
T2 chain: YKKALHRQEAVDAL

B1: AIPx5 multimer (peptide)
peptide: YKKALHRQEAVDALYKKALHRQEAVDALYKKALHRQEAVDALYKKALHRQEAVDALYKKALHRQEAVDAL
B2: CN19oX3 multimer (peptide)
peptide: KRAPKLGQIGRQKAVDIEDKRAPKLGQIGRQKAVDIEDKRAPKLGQIGRQKAVDIED
B3: CaMKII (endogenous, mouse heart) (protein)
chain: MATTATCTRFTDDYQLFEELGKGAFSVVRRCVKKTSTQEYAAKIINTKKLSARDHQKLEREARICRLLKHPNIVRLHDSISEEGFHYLVFDLVTGGELFEDIVAREYYSEADASHCIHQILESVNHIHQHDIVHRDLKPENLLLASKCKGAAVKLADFGLAIEVQGEQQAWFGFAGTPGYLSPEVLRKDPYGKPVDIWACGVILYILLVGYPPFWDEDQHKLYQQIKAGAYDFPSPEWDTVTPEAKNLINQMLTINPAKRITADQALKHPWQRSTVASMMHRQETVECLRKFNARRKLKGAILTTMLVSRNFSAAKSLLNKKSDGGVKKRKSSSSVHLMPQSNNKNSLVSPAQEPAPLQTAMEPQTTVVHNATDGIKGSTESCNTTTEDEDLKAAPLRTGNGSLVPEGRSPRDRTAPSAGMQPQPSLCSSAMRKQEIIKITEQLIEAINNGDFEAYTKICDPGLTSFEPEALGNLVEGMDFHKFYFENLLSKNSKPIHTTILNPHVHVIGEDAACIAYIRLTQYIDGQGRPRTSQSEETRVWHRRDGKWLNVHYHCSGAPAAPLQ

Assays:
[1] = biological target: CaMKIIδ (Homo sapiens, UniProt Q13557); test: in vitro inhibition of CaMKIIδ, bioluminescent ADP monitoring assay (ADP-GLO); format: biochemical; conditions: purified polypeptides
Method: FIG. 4 provides a schematic illustrating the design of an in vitro experiment to evaluate the impact of the purified polypeptides described in FIG. 2D and shown in the left portion of FIG. 4 on CaMKIIδ (an isomer of CaMKII) activity. Activity of CaMKIIδ was measured using a bioluminescent and homogeneous ADP monitoring assay for kinases (ADP-GLO™), which is described in Zegzouti, et al. “ADP-Glo: A Bioluminescent and Homogeneous ADP Monitoring Assay for Kinases,” ASSAY and Drug Development Technologies, December 2009, 560-572, doi.org/10.1089/adt.2009.0222, the disclosure of which is incorporated herein by reference in its entirety for all purposes.
Inhibition of CaMKIIδ activity by the polypeptides was evaluated using a bioluminescent and homogeneous ADP monitoring assay for kinases (ADP-GLO™), which is described in Zegzouti, et al. “ADP-Glo: A Bioluminescent and Homogeneous ADP Monitoring Assay for Kinases,” ASSAY and Drug Development Technologies, December 2009, 560-572, doi.org/10.1089/adt.2009.0222, the disclosure of which is incorporated herein by reference in its entirety for all purposes (FIG. 4).

[2] = system: LKB1 knockout mice; test: Example 5: beat-to-beat variability (EKG) in LKB1 knockout mice (AF model); format: in vivo, mouse
Description: Two different atrial fibrillation (AF) mouse models were used to test the efficacy of AIP×5 at treating AF of different origins. The two different AF mouse models were liver kinase B1 (LKB1) knock out mice and T-box transcription factor 5 (Tbx5) knock out mice.
LKB1-floxed or Tbx5-floxed mice were used to test the efficacy of AIP×5. AAV-NPPA-Cre was then used to conditionally knock out LKB1 or Tbx5 from the atria of the mice. NPPA is an atria specific promoter, ensuring that Cre recombinase directed knockout of LKB1 or Tbx5 was restricted to the atria. AAV-NPPA-FP (fluorescent protein) was used as a control virus. AAV-NPPA-FP has no Cre, and therefore the gene of interest is not knocked out. Uninjected mice were also included as a control to account for any effects caused by AAV injections. AAV-cTnT-AIP×5 or AAV-cTnT-CN19o were both tested as potential therapies to AF.
In short, P3 LKB1-floxed or Tbx5-floxed mice were injected (or not injected in the uninjected controls), and then EKG measurements of the mice were taken every two weeks starting at P14. At 12 weeks, the mice were sacrificed, and the sacrificed mice were tested for protein expression.
AF was calculated using the standard deviation of the beat-to-beat timing differences. A high beat-to-beat variability when sedated was indicative of atrial misfiring.
Statistical significance in the tests illustrated in FIGS. 10 and 11 was conducted using a 2-way Anova with post-hoc Dunnett's multiple comparisons to control (FP) group.

[3] = system: CaMKII; conditions: FIG. 2A, in vitro system of the cited papers; cited from earlier work
[4] = biological target: CaMKIIδ, Q13557; test: cell-based or functional assay
[5] = biological target: T1, AIPx5 multimer
[6] = biological target: T2, autocamtide-2-related inhibitory …

Sequence of CaMKIIδ (Q13557 1-478): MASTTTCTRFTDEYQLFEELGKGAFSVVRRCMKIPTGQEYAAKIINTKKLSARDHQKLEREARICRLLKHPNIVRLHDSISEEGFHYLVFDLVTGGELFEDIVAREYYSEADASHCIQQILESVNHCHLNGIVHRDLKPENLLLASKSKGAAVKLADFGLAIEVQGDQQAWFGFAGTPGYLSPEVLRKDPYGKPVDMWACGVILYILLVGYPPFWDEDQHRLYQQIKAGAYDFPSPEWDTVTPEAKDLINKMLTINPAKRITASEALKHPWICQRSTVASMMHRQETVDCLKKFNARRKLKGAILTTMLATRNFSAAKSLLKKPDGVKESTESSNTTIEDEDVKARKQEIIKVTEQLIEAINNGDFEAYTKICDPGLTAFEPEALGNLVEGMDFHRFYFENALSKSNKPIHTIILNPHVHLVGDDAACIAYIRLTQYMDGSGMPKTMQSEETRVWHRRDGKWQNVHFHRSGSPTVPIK
Sequence of CaMKIIδ, Q13557 (Q13557 whole entry, stated change not applied): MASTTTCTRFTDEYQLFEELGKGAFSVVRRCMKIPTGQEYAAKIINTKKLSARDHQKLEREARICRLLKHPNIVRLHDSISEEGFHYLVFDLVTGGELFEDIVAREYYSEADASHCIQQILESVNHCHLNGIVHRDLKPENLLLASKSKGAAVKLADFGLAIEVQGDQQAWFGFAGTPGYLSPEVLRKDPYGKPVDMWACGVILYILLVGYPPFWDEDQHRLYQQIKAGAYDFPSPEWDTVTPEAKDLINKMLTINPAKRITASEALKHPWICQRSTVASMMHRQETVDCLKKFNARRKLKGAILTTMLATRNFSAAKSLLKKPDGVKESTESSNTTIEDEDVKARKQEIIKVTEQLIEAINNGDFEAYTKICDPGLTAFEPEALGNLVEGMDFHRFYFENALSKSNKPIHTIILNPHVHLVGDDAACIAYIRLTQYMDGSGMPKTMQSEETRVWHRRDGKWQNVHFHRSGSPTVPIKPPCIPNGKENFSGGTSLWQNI

Molecule	EC50 [1] [µM]	EC50 (inhibition of CaMKIIδ activity, ADP-GLO bioluminescent ADP monitoring assay) [4] [µM]	other results
YKKALHRQEAVDALYKKALHRQEAVDALYKKALHRQEAVDAL [AIP×3]	0.543	–	–
KRAPKLGQIGRQKAVDIED [CN19o, reference compound]	0.0016	–	beat-to-beat variability compared to LKB1 knockout mice alone [2]: performed worse in measures of beat-to-beat variability than LKB1 knockout mice alone; suppression of beat-to-beat variability ([2]; AAV-cTnT vector, FIG. 10): did not suppress beat-to-beat variability; IC50 / potency of CaMKII inhibition compared with AIP [3]: lower IC50 than AIP; also recorded: more potent inhibitor of CaMKII than AIP
KRAPKLGQIGRQKAVDIEDKRAPKLGQIGRQKAVDIEDKRAPKLGQIGRQKAVDIED [CN19oX3]	0.0021	–	–
YKKALHRQEAVDAL [autocamtide-2-related inhibitory peptide (AIP)]	–	6.15	–
YKKALHRQEAVDALYKKALHRQEAVDALYKKALHRQEAVDAL [AIPx3 multimer]	–	0.543	–
B1	–	0.114	–
KRAPKLGQIGRQKAVDIED [CN19o]	–	0.0016	–
B2	–	0.0021	–
B3	–	–	phosphorylation of phospholamban (PLB) at threonine-17 in heart tissue exposed to isoproterenol (capillary Western, pPLB/PLB) [5]: contacting cells with AIP or AIP×5 resulted in a statistically significant decrease in PLB phosphorylation in cells exposed to ISO; phosphorylation of phospholamban (PLB) at threonine-17 in heart tissue exposed to isoproterenol (capillary Western, pPLB/PLB) [6]: contacting cells with AIP or AIP×5 resulted in a statistically significant decrease in PLB phosphorylation in cells exposed to ISO
